T1: murine FcRn (mouse, UniProt P01887 21-119)
T1 construct: also called mouse FcRn; muFcRn
T1 sequence: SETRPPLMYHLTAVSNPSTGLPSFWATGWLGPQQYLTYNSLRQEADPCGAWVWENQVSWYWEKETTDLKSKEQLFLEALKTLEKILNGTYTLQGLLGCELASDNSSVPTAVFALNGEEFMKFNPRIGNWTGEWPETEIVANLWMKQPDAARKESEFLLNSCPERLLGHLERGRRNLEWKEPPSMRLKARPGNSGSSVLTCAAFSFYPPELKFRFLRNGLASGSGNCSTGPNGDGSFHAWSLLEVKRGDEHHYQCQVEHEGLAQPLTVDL
T1 sequence (b2m): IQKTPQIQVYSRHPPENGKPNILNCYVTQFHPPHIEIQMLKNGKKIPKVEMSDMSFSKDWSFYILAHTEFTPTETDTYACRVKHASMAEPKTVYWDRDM

B1: human IgG1 MEDI-493 (palivizumab) I253A (antibody)
heavy: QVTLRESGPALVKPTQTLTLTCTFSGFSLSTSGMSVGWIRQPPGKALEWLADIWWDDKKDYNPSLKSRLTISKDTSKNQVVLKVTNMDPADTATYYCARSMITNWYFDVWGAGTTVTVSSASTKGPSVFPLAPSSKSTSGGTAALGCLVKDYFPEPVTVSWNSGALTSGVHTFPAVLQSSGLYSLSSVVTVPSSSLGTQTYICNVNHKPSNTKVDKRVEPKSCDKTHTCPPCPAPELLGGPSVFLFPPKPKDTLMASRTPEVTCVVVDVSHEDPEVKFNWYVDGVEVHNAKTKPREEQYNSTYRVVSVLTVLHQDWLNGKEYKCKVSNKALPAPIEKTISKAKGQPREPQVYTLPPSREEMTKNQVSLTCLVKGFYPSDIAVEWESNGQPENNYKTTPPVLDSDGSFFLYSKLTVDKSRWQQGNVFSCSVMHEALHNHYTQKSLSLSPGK
light: DIQMTQSPSTLSASVGDRVTITCKCQLSVGYMHWYQQKPGKAPKLLIYDTSKLASGVPSRFSGSGSGTEFTLTISSLQPDDFATYYCFQGSGYPFTFGGGTKLEIKRTVAAPSVFIFPPSDEQLKSGTASVVCLLNNFYPREAKVQWKVDNALQSGNSQESVTEQDSKDSTYSLSSTLTLSKADYEKHKVYACEVTHQGLSSPVTKSFNRGEC
notes: also called 1253A
B2: MEDI-524-YTE (antibody, human IgG1, kappa)
heavy: QVTLRESGPALVKPTQTLTLTCTFSGFSLSTAGMSVGWIRQPPGKALEWLADIWWDDKKHYNPSLKDRLTISKDTSKNQVVLKVTNMDPADTATYYCARDMIFNFYFDVWGQGTTVTVSSASTKGPSVFPLAPSSKSTSGGTAALGCLVKDYFPEPVTVSWNSGALTSGVHTFPAVLQSSGLYSLSSVVTVPSSSLGTQTYICNVNHKPSNTKVDKRVEPKSCDKTHTCPPCPAPELLGGPSVFLFPPKPKDTLYITREPEVTCVVVDVSHEDPEVKFNWYVDGVEVHNAKTKPREEQYNSTYRVVSVLTVLHQDWLNGKEYKCKVSNKALPAPIEKTISKAKGQPREPQVYTLPPSREEMTKNQVSLTCLVKGFYPSDIAVEWESNGQPENNYKTTPPVLDSDGSFFLYSKLTVDKSRWQQGNVFSCSVMHEALHNHYTQKSLSLSPGK
light: DIQMTQSPSTLSASVGDRVTITCSASSRVGYMHWYQQKPGKAPKLLIYDTSKLASGVPSRFSGSGSGTEFTLTISSLQPDDFATYYCFQGSGYPFTFGGGTKVEIKRTVAAPSVFIFPPSDEQLKSGTASVVCLLNNFYPREAKVQWKVDNALQSGNSQESVTEQDSKDSTYSLSSTLTLSKADYEKHKVYACEVTHQGLSSPVTKSFNRGEC

What was measured:
[1] = target: T1, murine FcRn; experiment: SPR (BIAcore), FcRn over immobilised IgG1, pH 6.0
Method: (§1) IgG1 variants was monitored by surface plasmon resonance detection using a BIAcore 3000 instrument (Pharmacia Biosensor, Uppsala, Sweden). […] The protein concentrations ranged from 3-5 μg/ml in 10 mM sodium acetate, pH 5.0. The activation period was set for 7 minutes at a flow rate of 10 μl/min and the immobilization period was set to between 10 and 20 minutes at a flow rate of 10 μl/min. […] Human and murine FcRn were buffer exchanged against 50 mM PBS buffer pH 6.0 containing 0.05% Tween 20. Dilutions were made in the same buffer. All binding experiments were performed at 25° C. with concentrations ranging from 120 to 1 μg/ml at a flow rate of 5 to 10 μl/min; data were collected for 25 to 50 minutes and three 1-minute pulses of PBS buffer pH 7.2 were used to regenerate the surfaces. FcRn was also flowed over an uncoated cell and the sensorgrams from these blank runs subtracted from those obtained with IgG1-coupled chips. Runs were analyzed using the software BIAevaluation 3.1 (Pharmacia). Association constants (KAs) were determined from Scatchard analysis by measuring the concentration of free reactants and complex at equilibrium after correction for nonspecific binding.

[2] = target: T2, human FcRn (human); experiment: SPR (BIAcore), FcRn over immobilised IgG1, pH 6.0
T2 construct: also called recombinant human FcRn
T2 sequence (chain, as listed by the source limits assumed, chain 1 of 2): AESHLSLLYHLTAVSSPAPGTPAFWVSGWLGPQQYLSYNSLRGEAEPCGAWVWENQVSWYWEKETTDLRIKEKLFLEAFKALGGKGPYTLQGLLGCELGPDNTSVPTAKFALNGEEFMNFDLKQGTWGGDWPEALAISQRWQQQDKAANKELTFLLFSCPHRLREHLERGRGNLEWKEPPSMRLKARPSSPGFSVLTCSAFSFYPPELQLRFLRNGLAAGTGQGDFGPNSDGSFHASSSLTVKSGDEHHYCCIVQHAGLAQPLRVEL
T2 sequence (P61769 21-119 limits assumed, chain 2 of 2): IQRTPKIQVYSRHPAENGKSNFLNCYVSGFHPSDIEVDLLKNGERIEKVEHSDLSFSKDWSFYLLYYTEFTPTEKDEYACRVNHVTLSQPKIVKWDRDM
Method: as §1

[3] = target: T3, Cynomolgus Monkey FcRn (Cynomolgus Monkey, UniProt Q8SPV9 24-290; Q8SPW0 21-119); experiment: SPR (BIAcore 3000), FcRn over immobilised IgG, pH 6.0, one-site fit
T3 construct: also called Cynomolgus FcRn
T3 sequence (Q8SPV9 24-290 limits assumed, chain 1 of 2): as the sequence (chain, as listed by the source limits assumed, chain 1 of 2) above, with N39D, E44Q, G99S, S189G, S190N, L217M counted along it
T3 sequence (Q8SPW0 21-119 limits assumed, chain 2 of 2): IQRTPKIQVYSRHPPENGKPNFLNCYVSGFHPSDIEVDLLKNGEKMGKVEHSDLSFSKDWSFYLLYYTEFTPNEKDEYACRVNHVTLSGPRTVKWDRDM
Method: (§2) Human and Cynomolgus Monkey FcRn were buffer-exchanged against 50 mM Phosphate Buffered Saline (PBS) pH 6.0 or 7.4 containing 0.05% Tween 20. Dilutions were made in the same buffers. […] FcRn was also flowed over an uncoated cell and the sensorgrams from these blank runs subtracted from those obtained with IgG-coupled chips. Runs were analyzed using the software BIAevaluation 3.1 (Pharmacia). Dissociation constants (Kds) were determined by fitting the binding isotherms to a one-site binding model using GraphPad Prism (GraphPad Software, Inc., CA). Errors were estimated as the mean standard deviation for at least 2 independent determinations.

[4] = target: T2, human FcRn; experiment: as above
Method: as §2

[5] = target: T3, Cynomolgus Monkey FcRn; experiment: SPR (BIAcore 3000), FcRn over immobilised IgG
Method: as §2

[6] = target: T2, human FcRn; experiment: SPR (BIAcore 3000), FcRn over immobilised IgG
Method: as §2

Binder | binding result [1] | binding result [2] | Kd [3] | Kd [4] | fold affinity increase over MEDI-524 [5] | fold affinity increase over MEDI-524 [6]
B1 | no binding | no binding |  |  |  | 
B2 |  |  | 134 nM | 210 nM | 9 fold | 11 fold

— patent US20110158985A1 (published 2011)
